Literature values as cited in publication PMC12208613.
pKd: −log10 of the molar value. “And” between values parts separate entries of the source, which are not always exact repeats. Equal entries are not always repeated.

Target: CD7 (Homo sapiens) (UniProt P09564)
Sequence (P09564 26-180): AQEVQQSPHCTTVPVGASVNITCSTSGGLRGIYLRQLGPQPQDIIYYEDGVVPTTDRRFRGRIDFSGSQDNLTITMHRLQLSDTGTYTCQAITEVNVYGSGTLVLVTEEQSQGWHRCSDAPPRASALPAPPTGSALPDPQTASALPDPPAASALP

Sequence of K12 (Q8WVN6 29-145): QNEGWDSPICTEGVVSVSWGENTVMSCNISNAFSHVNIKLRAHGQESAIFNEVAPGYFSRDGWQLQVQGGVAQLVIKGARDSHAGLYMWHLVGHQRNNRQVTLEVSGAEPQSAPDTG

- pKd: 8.00 and 7.42
Substance: K12 (from UniProt Q8WVN6)
